Measured values reported in patent publication US20210403565A1 (BIOATLA, published 2021).

T1: recombinant human CTLA4 extracellular domain (human, UniProt P16410 36-161)
T1 construct: extracellular domain; also called huCTLA-4
T1 sequence (looked up): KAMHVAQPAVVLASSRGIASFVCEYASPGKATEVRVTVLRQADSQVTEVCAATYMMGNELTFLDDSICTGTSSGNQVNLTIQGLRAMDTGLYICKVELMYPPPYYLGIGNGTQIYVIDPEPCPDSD

T2: recombinant cynomolgus CTLA4 extracellular domain (cynomolgus, UniProt G7PL88 36-161)
T2 construct: extracellular domain; also called cynoCTLA-4; cynoCTLA4
T2 sequence: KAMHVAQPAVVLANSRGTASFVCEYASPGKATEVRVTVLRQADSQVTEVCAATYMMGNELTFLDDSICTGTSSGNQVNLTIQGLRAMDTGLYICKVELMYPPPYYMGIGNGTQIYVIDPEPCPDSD

T3: human CTLA4 expressed on the cell surface of CHO cells (human, UniProt P16410 36-223)
T3 construct: whole, on cells; also called CHO-huCTLA4; huCTLA4
T3 sequence (looked up): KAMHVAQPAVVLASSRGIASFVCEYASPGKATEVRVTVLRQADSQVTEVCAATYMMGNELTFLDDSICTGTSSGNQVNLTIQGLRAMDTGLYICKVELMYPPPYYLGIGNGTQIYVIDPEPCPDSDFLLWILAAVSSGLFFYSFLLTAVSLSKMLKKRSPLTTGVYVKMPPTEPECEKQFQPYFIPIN


Columns and labels:
[1] = target: T1, recombinant human CTLA4 extracellular …; assay: SPR, human CTLA4 ECD immobilised, pH 6.0, AVG
Description: (§1) The CTLA4 extracellular domain (human or cynomolgus) was immobilized on the surface of a sensor chip. […] The binding kinetics were calculated using a 1:1 Longmuir model built into the analysis software.

[2] = target: T1, recombinant human CTLA4 extracellular …; assay: SPR, human CTLA4 ECD immobilised, pH 7.4, AVG
Description: as §1

[3] = target: T1, recombinant human CTLA4 extracellular …; assay: SPR, human CTLA4 ECD immobilised, pH 6.0, run 1
Description: as §1

[4] = target: T1, recombinant human CTLA4 extracellular …; assay: SPR, human CTLA4 ECD immobilised, pH 7.4, run 1
Description: as §1

[5] = target: T1, recombinant human CTLA4 extracellular …; assay: SPR, human CTLA4 ECD immobilised, pH 6.0, run 3
Description: as §1

[6] = target: T1, recombinant human CTLA4 extracellular …; assay: SPR, human CTLA4 ECD immobilised, pH 7.4, run 3
Description: as §1

[7] = target: T1, recombinant human CTLA4 extracellular …; assay: ELISA, immobilised huCTLA-4, pH 6.0, Jun. 27, 2017
Description: EC₅₀ values at pH 6.0 for binding to human CTLA4 were calculated using the nonlinear fit model (variable slope, four parameters) of GraphPad Prism version 7.03.

[8] = target: T2, recombinant cynomolgus CTLA4 …; assay: SPR, cynomolgus CTLA4 ECD immobilised, pH 6.0, equilibrium fit; SPR, pH 6.0
Description: as §1
The KD was calculated by plotting the maximum SPR signal at each concentration against the antibody concentration. Experiments were run in triplicate at each pH.

[9] = target: T3, human CTLA4 expressed on the cell …; assay: FACS, cells expressing human CTLA4, assay pH 6.0, MFI; lot 6978 in Tris buffer, T0; unit from the axis Log[ng/mL]
Description: (§2) The amount of bound antibodies was quantified using anti-human IgG antibody conjugated to fluorophores. The MFI in each reaction was proportional to the amount of antibodies bound. The EC₅₀ value (in ng/mL) for binding to human CTLA4 on cells was determined by MFI of the singlets population against antibody concentration with a Prism variable slope of four-parameter dose-response curve, which was calculated using the nonlinear fit (variable slope, four parameters) model built into GraphPad Prism software (version 7.03).

[10] = target: T1, recombinant human CTLA4 extracellular …; assay: ELISA, wells coated with human CTLA4, assay pH 7.4; lot 6978 in His buffer, T2W; curve still rising at log 3 (OD450 below 0.2), no plateau; unit from the axis Log[ng/mL]
Description: Both ELISA and FACS analysis were used to measure the binding activity. […] The amount of bound antibodies was quantified using anti-human IgG antibody conjugated to HRP. The absorbance at 450 nm in each measurement was proportional to the amount of antibodies bound. […] EC50 value (in ng/mL) for binding to human CTLA4 was determined by absorbance at 450 nm against antibody concentration with Prism variable slope of four-parameter dose-response curve, which was calculated using the nonlinear fit (variable slope, four parameters) model built into GraphPad Prism software (version 7.03). The buffers tested included His buffer (His), Tris buffer (Tris), Glutamine buffer (Glu) and no buffer.

[11] = target: T3, human CTLA4 expressed on the cell …; assay: FACS, cells expressing human CTLA4, assay pH 7.4, MFI; lot 6978 control without test buffer; same column repeated in FIG. 10E and FIG. 10F; unit from the axis Log[ng/mL]
Description: as §2

[12] = target: T3, human CTLA4 expressed on the cell …; assay: FACS, cells expressing human CTLA4, assay pH 6.0, MFI; lot 6972 in His buffer, T0; unit from the axis Log[ng/mL]
Description: as §2

[13] = target: T3, human CTLA4 expressed on the cell …; assay: FACS, cells expressing human CTLA4, assay pH 7.4, MFI; lot 6972 in His buffer, T0; unit from the axis Log[ng/mL]
Description: as §2

[14] = target: T3, human CTLA4 expressed on the cell …; assay: FACS, cells expressing human CTLA4, assay pH 7.4, MFI; lot 6972 in Tris buffer, T0; unit from the axis Log[ng/mL]
Description: as §2

| Kd [1] | koff [1] | kon [1] | Kd [2] | koff [2] | kon [2] | Kd [3] | koff [3] | kon [3] | Kd [4] | koff [4] | Kd [5] | koff [5] | kon [5] | Kd [6] | koff [6] | kon [6] | EC50 [7] | Kd [8] | Binder | other results |
| --- | --- | --- | --- | --- | --- | --- | --- | --- | --- | --- | --- | --- | --- | --- | --- | --- | --- | --- | --- | --- |
| 0.451 nM | 0.00163 s⁻¹ | 3.56e+06 M⁻¹ s⁻¹ | 45.2 nM | 0.0166 s⁻¹ | 519000 M⁻¹ s⁻¹ | 0.365 nM | 0.0012 s⁻¹ | 3.29e+06 M⁻¹ s⁻¹ | 52.5 nM | 0.0284 s⁻¹ | 0.524 nM | 0.00214 s⁻¹ | 4.08e+06 M⁻¹ s⁻¹ | 68.3 nM | 0.0132 s⁻¹ | 194000 M⁻¹ s⁻¹ | 0.0146 µg/mL | 5.95 nM | BA-087-08-32 (antibody, V domains shown, Detected with anti-human IgG and a molecular weight of 146 kDa was used in SPR, so it was tested as a whole IgG; also called BA-087-08-032; BA-087-08-32 (# 6978)) VH: EVQLVQSGAEVKKPGATVKISCKVSGFTFSHYTMHWIRQSPSRGLEWLGFISYDGNYKYYADSVKGRFTISRDNAKNSLYLQMNSLRAEDTAVYYCARTGWLGPFDYWGQGTLVTVSS VL: EIVMTQSPATLSVSPGERATLSCRASQSVGSSYLAWYQQKPGKAPKLLIYGAFSRATGVPSRFSGSGSGTDFTLTISSLQPEDFATYYCQQDGSSPWTFGQGTKVEIK | EC50 [9]: 0.152 µg/mL; EC50 [10]: 1.07 µg/mL; EC50 [11]: 0.868 µg/mL |
| 0.499 nM | 0.000611 s⁻¹ | 1.23e+06 M⁻¹ s⁻¹ | 1.1 nM | 0.000958 s⁻¹ | 869000 M⁻¹ s⁻¹ | 0.472 nM | 0.000631 s⁻¹ | 1.34e+06 M⁻¹ s⁻¹ | 1.39 nM | 0.00126 s⁻¹ | 0.543 nM | 0.000598 s⁻¹ | 1.1e+06 M⁻¹ s⁻¹ | 1.12 nM | 0.000943 s⁻¹ | 844000 M⁻¹ s⁻¹ | 0.00959 µg/mL | 1.96 nM | BA-087-05-19 (antibody, V domains shown, Detected with anti-human IgG and a molecular weight of 146 kDa was used in SPR, so it was tested as a whole IgG; also called BA-087-05-019; BA-087-05-19 (# 6972)) VH: EVQLVESGGGLVQPGGSLRLSCAASGFTFSHYTMHWVRQAPGKGLEWVSFISYDGNNKYYADSVKGRFTISRDNSKNTLYLQMNSLRAEDTAVYYCARTGWLGPFDYWGQGTLVTVSS VL: AIQLTQSPSSLSASVGDRVTITCRASQYVGSSYLAWYLQKPGQSPQLLIYGAFSRATGIPARFSGSGSGTEFTLTISSLQSEDFAVYYCQQDGSSPWTFGQGTKVEIK | kon [4]: 906000 M⁻¹ s⁻¹; EC50 [12]: 0.291 µg/mL; EC50 [13]: 0.433 µg/mL; EC50 [14]: 0.681 µg/mL |
